Test results reported in PMC3462190, “A Peptidic Unconjugated GRP78/BiP Ligand Modulates the Unfolded Protein Response and Induces Prostate Cancer Cell Death” (PLoS ONE, 2012).

Legend:
GRP78/BiP [1] = experiment: In vitro ATPase activity assay of GRP78; type: biochemical; conditions: GRP78 0.5 µg, GST purified Bag-1 or Bag-1 peptide up to 1.5 µg, 1 h, 37°C
Protocol: In vitro ATPase activity assay of GRP78. A. ATPase activity was measured with the ATPase assay kit from Innova Bioscience (Cambridge, UK). The reaction mixture contained GRP78 (0.5 µg) increasing amounts of GST purified Bag-1 (continuous line) or Bag-1 peptide (dashed line) up to 1.5 µg. The reaction was carried out for 1 h at 37°C with purified ATP according to the manufacturer’s instructions. Each point represents the mean value of three independent experiments ± SEM. B. The purity of protein preparation used for the assay. Shown are 5 µg of purified GRP78 (StressMarq Biosciences, Victoria, Canada), GST Bag-1 peptide, and GST-Bag-1 used in the assay following SDS PAGE and Coomassie blue staining. (TIF) Click here for additional data file.

[2] = tested on: ATPase domain of GRP78/BiP; experiment: GST pull-down with ATPase domain of GRP78/BiP; type: binding; conditions: 10 µg GST-fused ATPase domain, lysate of HEK-293 cells; for the 68 amino acid peptide results not shown
GRP78/BiP [3] = experiment: Co-immunoprecipitation with endogenous GRP78/BiP; type: binding
Protocol: 22Rv.1 cells were used for interaction studies of endogenous Bag-1 and GRP78/BiP, while for the in vivo interaction of the Bag-1 peptide and GRP78/BiP, HEK-293 cells were transfected with a plasmid encoding HA-tagged Bag-1 peptide. Twenty-four hours prior to the experiment, the cells in both cases were washed with phosphate buffered saline (PBS) and treated with 20 mM Dithiobis(succinimidyl propionate) (DSP) in PBS for 30 min at room temperature. The reaction was stopped with 20 mM Tris and the cells were lysed in 50 mM Tris-HCl pH 7.4, 120 mM NaCl, 1 mM EDTA, 0.4% NP40 and 1% protease inhibitor cocktail. Immunoprecipitation of GRP78/BiP was carried out overnight at 4°C with anti-GRP78 antibody coupled to sepharose A beads (Abcam, ab21685). Binding of endogenous Bag-1 or of HA-peptide was determined by Western blotting using a Bag-1 or an HA specific antibody.
Figure 1 Bag-1 proteins interact with the molecular chaperone GRP78/BiP. A. The Bag-1 family of proteins binds GRP78/BiP. GST pull-down assay was performed incubating 5 µg each of GST-fused Bag-1 proteins with 400 µg of 22Rv.1 cell lysate. […]
Figure 2 Identification of Bag-1 peptide interfering with the action of GRP78/BiP. […] Western blot analysis with an HA antibody to detected the Bag-1 mutants is shown. […] Thereafter luciferase activity was measured. […]

LNCaP xenograft tumor = experiment: LNCaP tumor xenograft study; type: in vivo, athymic nude mice; conditions: mean and SD of 4–10 tumors
Protocol: All animal experiments were performed according to European and German statutory regulations. For generation of xenograft models 5×10^6 LNCaP cells were resuspended in a solution of 50% Matrigel® (BD Bioscience, Heidelberg, Germany) in PBS or 5×10^6 22Rv.1 cells in 100 µl of PBS were subcutaneously injected into both flanks of 6–8 week-old athymic nude mice. Tumor size was measured with a caliper every week. Tumors derived from the […], […] Tumor size was assessed measuring three perpendicular diameters according to the formula: V = (1/6) [π] (d1d2d3), where π is a mathematic constant and d1, d2 and d3 represent the three spatial dimensions (width, depth and height). Mice were euthanized by cervical dislocation and the tumors removed for further analysis.

| Molecule | ATPase activity of GRP78/BiP (GRP78/BiP [1]) | interaction with ATPase domain of GRP78/BiP [2] | in vivo interaction with GRP78/BiP (GRP78/BiP [3]; 22Rv.1 cells, endogenous Bag-1) | Tumor weight, clone P12 (LNCaP xenograft tumor; LNCaP clone P12, termination 8 weeks, vector V82 0.65±0.29 g (8 weeks)) [g] | Tumor weight, clone P35 (LNCaP xenograft tumor; LNCaP clone P35, termination 6 weeks, vector V69 0.22±0.03 g (6 weeks)) [g] | in vivo interaction with endogenous GRP78/BiP (GRP78/BiP [3]; HEK-293 cells expressing HA-tagged Bag-1 peptide, DSP cross-linked) |
| --- | --- | --- | --- | --- | --- | --- |
| Bag-1: cochaperone Bag-1, HA-tagged (pcDNA3.1-HA-Bag-1), or endogenous (protein, left off: HA, end not stated, kept, cochaperone Bag-1, HA-tagged (pcDNA3.1-HA-Bag-1), or endogenous) TPLSALGIQDGCRVMLIGKKNSPQEEVELKKLKHLEKSVEKIADQLEELNKELTGIQQGFLPKDLQAE | increased this enzymatic activity | interacted not only with the full length GRP78/BiP but also with its ATPase and SBD | bind to GRP78/BiP in 22Rv.1 cells | – | – | – |
| Bag-1 peptide: internal sequence of 68 amino acids of Bag-1 (Bag1-L 202–269), HA-tagged, expressed from pcDNA3 (also: HA tag, end not given here) TPLSALGIQDGCRVMLIGKKNSPQEEVELKKLKHLEKSVEKIADQLEELNKELTGIQQGFLPKDLQAE | did not have any effect on the ATPase activity of GRP78/BiP | interacted with both the SBD and ATPase binding domains of GRP78 | – | 0.04 ± 0.03 | 0.05 ± 0.01 | interacted with endogenous GRP78/BiP protein |
